Key:
[1] = target: T1, Dishevelled (Dsh) protein, endogenous, from Drosophila embryos and Clone-8 cells
T1 chain: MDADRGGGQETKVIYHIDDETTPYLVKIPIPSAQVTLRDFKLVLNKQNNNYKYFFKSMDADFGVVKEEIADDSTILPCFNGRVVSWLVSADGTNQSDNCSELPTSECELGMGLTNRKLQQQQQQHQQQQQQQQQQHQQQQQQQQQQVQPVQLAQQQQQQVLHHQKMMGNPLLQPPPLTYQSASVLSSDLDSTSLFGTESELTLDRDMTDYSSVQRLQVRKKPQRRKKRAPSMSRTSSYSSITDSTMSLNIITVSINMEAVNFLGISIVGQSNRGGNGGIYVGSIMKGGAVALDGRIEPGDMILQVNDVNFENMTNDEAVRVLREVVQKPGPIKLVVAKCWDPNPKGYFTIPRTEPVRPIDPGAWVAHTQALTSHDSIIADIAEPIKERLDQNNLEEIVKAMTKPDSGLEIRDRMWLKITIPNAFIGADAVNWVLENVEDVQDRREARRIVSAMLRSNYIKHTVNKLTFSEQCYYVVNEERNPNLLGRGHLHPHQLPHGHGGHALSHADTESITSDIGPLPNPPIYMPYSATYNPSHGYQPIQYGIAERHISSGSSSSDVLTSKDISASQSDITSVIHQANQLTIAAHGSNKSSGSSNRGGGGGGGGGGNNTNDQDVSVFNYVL

[2] = target: T2, GST-DM5 (GST fusion of the 36 amino acid DM5 segment of Dsh, amino acids 214-249)
T2 chain: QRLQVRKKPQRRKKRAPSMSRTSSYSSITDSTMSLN

B1: Dishevelled Associated Kinase (DAK), endogenous kinase activity from Drosophila embryo and Clone-8 cell lysates (protein)
chain: MSTAMRTTLQSVPEALPADSVSNGTASNVAAPAAPVSSATNAVPPLAAVSSTTATYATNSISTSSHSVKDQQQQQQQQQHDSANANIVSLPPTTTPVANTNTMMPIVTSSNSATSNSTAATPTPASGAAATGGVGSVSQGPATVSASAANTNHSHQHSHQHHHHVANNMTTDGARLSSNNSAVVASSAINHHHHHTPGSGVAPTVNKNVLSTHSAHPSAIKQRTSSAKGSPNMQMRSSAPMRWRATEEHIGKYKLIKTIGKGNFAKVKLAKHLPTGKEVAIKIIDKTQLNPGSLQKLFREVRIMKMLDHPNIVKLFQVIETEKTLYLIMEYASGGEVFDYLVLHGRMKEKEARVKFRQIVSAVQYCHQKRIIHRDLKAENLLLDSELNIKIADFGFSNEFTPGSKLDTFCGSPPYAAPELFQGKKYDGPEVDVWSLGVILYTLVSGSLPFDGSTLRELRERVLRGKYRIPFYMSTDCENLLRKFLVLNPAKRASLETIMGDKWMNMGFEEDELKPYIEPKADLADPKRIEALVAMGYNRSEIEASLSQVRYDDVFATYLLLGRKSTDPESDGSRSGSSLSLRNISGNDAGANAGSASVQSPTHRGVHRSISASSTKPSRRASSGAETLRVGPTNAAATVAAATGAVGAVNPSNNYNAAGSAADRASVGSNFKRQNTIDSATIKENTARLAAQNQRPASATQKMLTTADTTLNSPAKPRTATKYDPTNGNRTVSGTSGIIPRRSTTLYEKTSSTEKTNVIPAETKMASAVKSSRHFPRNVPSRSTFHSGQTRARNNTALEYSGTSGASGDSSHPGRMSFFSKLSSRFSKRPNQ
With B1 the “in vitro kinase assay of Dsh immunoprecipitates” value [1] was “Immunoprecipitated Dsh was phosphorylated in this assay” and the in-gel kinase assay [2] was “A polypeptide of 110 kDa appeared to account for the major DAK activity and two polypeptides of approximately 125 and 64 kDa appeared to represent minor activity”.
